B1: Zinc finger protein Aiolos (Homo sapiens), Q9UKT9 (parent)
chain: MEDIQTNAELKSTQEQSVPAESAAVLNDYSLTKSHEMENVDSGEGPANEDEDIGDDSMKVKDEYSERDENVLKSEPMGNAEEPEIPYSYSREYNEYENIKLERHVVSFDSSRPTSGKMNCDVCGLSCISFNVLMVHKRSHTGERPFQCNQCGASFTQKGNLLRHIKLHTGEKPFKCHLCNYACQRRDALTGHLRTHSVEKPYKCEFCGRSYKQRSSLEEHKERCRTFLQSTDPGDTASAEARHIKAEMGSERALVLDRLASNVAKRKSSMPQKFIGEKRHCFDVNYNSSYMYEKESELIQTRMMDQAINNAISYLGAEALRPLVQTPPAPTSEMVPVISSMYPIALTRAEMSNGAPQELEKKSIHLPEKSVPSERGLSPNNSGHDSTDTDSNHEERQNHIYQQNHMVLSRARNGMPLLKEVPRSYELLKPPPICPRDSVKVINKEGEVMDVYRCDHCRVLFLDYVMFTIHMGCHGFRDPFECNMCGYRSHDRYEFSSHIARGEHRALLK
partner: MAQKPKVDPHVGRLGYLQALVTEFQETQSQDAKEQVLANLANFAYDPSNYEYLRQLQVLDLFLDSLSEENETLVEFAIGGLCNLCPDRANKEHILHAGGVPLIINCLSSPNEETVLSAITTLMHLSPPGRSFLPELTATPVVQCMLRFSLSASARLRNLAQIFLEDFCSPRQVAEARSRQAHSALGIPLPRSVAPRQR
B2: Four and a half LIM domains protein 3 (Homo sapiens), Q13643 (parent)
chain: MSESFDCAKCNESLYGRKYIQTDSGPYCVPCYDNTFANTCAECQQLIGHDSRELFYEDRHFHEGCFRCCRCQRSLADEPFTCQDSELLCNDCYCSAFSSQCSACGETVMPGSRKLEYGGQTWHEHCFLCSGCEQPLGSRSFVPDKGAHYCVPCYENKFAPRCARCSKTLTQGGVTYRDQPWHRECLVCTGCQTPLAGQQFTSRDEDPYCVACFGELFAPKCSSCKRPIVGLGGGKYVSFEDRHWHHNCFSCARCSTSLVGQGFVPDGDQVLCQGCSQAGP
partner: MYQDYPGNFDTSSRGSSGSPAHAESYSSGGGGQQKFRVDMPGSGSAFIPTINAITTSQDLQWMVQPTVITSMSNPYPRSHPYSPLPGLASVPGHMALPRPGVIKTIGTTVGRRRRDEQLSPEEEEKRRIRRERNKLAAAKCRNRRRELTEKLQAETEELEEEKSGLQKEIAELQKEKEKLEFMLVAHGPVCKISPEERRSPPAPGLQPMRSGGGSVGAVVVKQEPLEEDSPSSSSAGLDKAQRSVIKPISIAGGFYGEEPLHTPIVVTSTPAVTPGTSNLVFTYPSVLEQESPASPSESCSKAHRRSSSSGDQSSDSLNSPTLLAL
B3: Serine/threonine-protein kinase PAK 5 (Homo sapiens), Q9P286 (parent)
chain: MFGKKKKKIEISGPSNFEHRVHTGFDPQEQKFTGLPQQWHSLLADTANRPKPMVDPSCITPIQLAPMKTIVRGNKPCKETSINGLLEDFDNISVTRSNSLRKESPPTPDQGASSHGPGHAEENGFITFSQYSSESDTTADYTTEKYREKSLYGDDLDPYYRGSHAAKQNGHVMKMKHGEAYYSEVKPLKSDFARFSADYHSHLDSLSKPSEYSDLKWEYQRASSSSPLDYSFQFTPSRTAGTSGCSKESLAYSESEWGPSLDDYDRRPKSSYLNQTSPQPTMRQRSRSGSGLQEPMMPFGASAFKTHPQGHSYNSYTYPRLSEPTMCIPKVDYDRAQMVLSPPLSGSDTYPRGPAKLPQSQSKSGYSSSSHQYPSGYHKATLYHHPSLQSSSQYISTASYLSSLSLSSSTYPPPSWGSSSDQQPSRVSHEQFRAALQLVVSPGDPREYLANFIKIGEGSTGIVCIATEKHTGKQVAVKKMDLRKQQRRELLFNEVVIMRDYHHDNVVDMYSSYLVGDELWVVMEFLEGGALTDIVTHTRMNEEQIATVCLSVLRALSYLHNQGVIHRDIKSDSILLTSDGRIKLSDFGFCAQVSKEVPKRKSLVGTPYWMAPEVISRLPYGTEVDIWSLGIMVIEMIDGEPPYFNEPPLQAMRRIRDSLPPRVKDLHKVSSVLRGFLDLMLVREPSQRATAQELLGHPFLKLAGPPSCIVPLMRQYRHH
partner: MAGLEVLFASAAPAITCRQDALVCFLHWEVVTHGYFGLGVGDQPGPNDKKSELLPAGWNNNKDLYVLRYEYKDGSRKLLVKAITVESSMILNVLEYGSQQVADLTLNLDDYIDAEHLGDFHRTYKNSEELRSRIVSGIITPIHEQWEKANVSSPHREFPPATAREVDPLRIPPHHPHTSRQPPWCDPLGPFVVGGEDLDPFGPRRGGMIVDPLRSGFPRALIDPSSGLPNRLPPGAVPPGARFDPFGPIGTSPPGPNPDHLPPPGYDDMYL
B4: Zyxin (Homo sapiens), Q15942 (parent)
chain: MAAPRPSPAISVSVSAPAFYAPQKKFGPVVAPKPKVNPFRPGDSEPPPAPGAQRAQMGRVGEIPPPPPEDFPLPPPPLAGDGDDAEGALGGAFPPPPPPIEESFPPAPLEEEIFPSPPPPPEEEGGPEAPIPPPPQPREKVSSIDLEIDSLSSLLDDMTKNDPFKARVSSGYVPPPVATPFSSKSSTKPAAGGTAPLPPWKSPSSSQPLPQVPAPAQSQTQFHVQPQPQPKPQVQLHVQSQTQPVSLANTQPRGPPASSPAPAPKFSPVTPKFTPVASKFSPGAPGGSGSQPNQKLGHPEALSAGTGSPQPPSFTYAQQREKPRVQEKQHPVPPPAQNQNQVRSPGAPGPLTLKEVEELEQLTQQLMQDMEHPQRQNVAVNELCGRCHQPLARAQPAVRALGQLFHIACFTCHQCAQQLQGQQFYSLEGAPYCEGCYTDTLEKCNTCGEPITDRMLRATGKAYHPHCFTCVVCARPLEGTSFIVDQANRPHCVPDYHKQYAPRCSVCSEPIMPEPGRDETVRVVALDKNFHMKCYKCEDCGKPLSIEADDNGCFPLDGHVLCRKCHTARAQT
partner: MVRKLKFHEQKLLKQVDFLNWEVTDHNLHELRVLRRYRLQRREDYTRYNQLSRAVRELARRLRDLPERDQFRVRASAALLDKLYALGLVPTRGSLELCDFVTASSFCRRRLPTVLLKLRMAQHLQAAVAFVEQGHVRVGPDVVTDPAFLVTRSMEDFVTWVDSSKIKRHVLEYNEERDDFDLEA

In the first test the parent is B1. As to conditions: with armc7_human ARMC7, Q9H6L4.
Turning to A24V, the “effect of a mutation on the interaction” value is given as “with no effect”.

In a further test the parent is B2. As to conditions: with fosl2_human FOSL2, P15408.
For R226H, the “effect of a mutation on the interaction” value is “with no effect”.

Variants of B3 are the subject of another test. As to conditions: with psmf1_human PSMF1, Q92530.
As to R335P, the “effect of a mutation on the interaction” value is recorded as “with no effect”.

The variants in another test derive from B4. Particulars: with imp3_human IMP3, Q9NV31.
Regarding R489W, the “effect of a mutation on the interaction” value is listed as “with no effect”.

Consider R563Q, for which the “effect of a mutation on the interaction” value is listed as “with no effect”.

The values are drawn from IntAct's records for PubMed 31515488.
